Results from the supplement of paper PMC10567573.

B1: NET1 (parent)
chain: PTPAKRRSSALWSEMLDITMKESL

Variants of: B1
Assay: protein stability index of a GFP-peptide fusion (GPS, HEK-293T) (PSI 1-6); higher = more stable
Conditions: c terminus: a fixed tail appended
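Note: lentivirally expressed fusions sorted by FACS into six bins by GFP to DsRed ratio, PSI derived from sequencing read proportions per bin multiplied by bin number.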

Protein stability index of substitutions, site by site:
W12: G 4.59, H 3.62, I 3.5, K 3.74, L 3.31, M 3.51, N 4.79, P 3.9, Q 4.46, S 4.09, T 4.19, V 3.65, Y 2.78
S13: A 1.42, D 3.58, F 1.75, G 2.86, H 2.88, I 2.13, K 2.34, M 2.64, N 2.49, P 2.71, Q 1.12, R 2.42, W 3.21, Y 2.09
E14: A 1.55, C 1.15, D 2.75, F 1.58, H 2.2, I 3.13, K 2.87, L 1.5, N 2.11, P 3.15, R 2.43, S 2.35, T 1.93, V 1.25, W 1.69, Y 2.2
M15: C 2.38, D 3.91, E 4.77, F 2.04, G 3.83, H 2.38, I 2.07, K 2.82, L 2.91, N 3.13, P 4.32, Q 3, V 2.9, W 2.05, Y 1.96
L16: A 2.59, E 3.67, F 2.1, G 2.33, H 2.85, I 2.84, M 2.2, N 3.84, P 2.38, Q 2.92, S 3.17, T 2.85, Y 2.19
D17: A 1.95, C 1.53, E 2.07, F 2, G 2.25, I 2.31, K 1.25, L 2.07, M 1.26, N 2.75, P 2.83, Q 1.85, R 2.27, T 1.92, Y 2.83
I18: A 2.12, C 2, D 3.39, E 2.9, F 2.46, G 3.36, H 2.53, N 2.41, R 2.84, S 2.77, T 2.62, V 3.12, W 1.91, Y 2.97
T19: A 1.74, D 2.37, E 1.43, G 2.36, H 2.43, I 1.04, L 1.66, N 3.39, P 1.7, Q 1.93, R 1.81, W 1.61
M20: A 2.24, D 2.58, E 2.17, F 1.88, G 3.44, H 2.45, I 2.09, K 2.75, L 1.55, N 2.74, P 3.25, R 3.42, S 3.71, T 2.76, V 2.73, W 1.72, Y 2.64
K21: A 2.38, D 3.04, E 2.8, F 1.17, H 2.25, I 2.06, N 3.67, R 2.33, S 2.73, T 2.21, V 2.5, Y 2.03
E22: A 1, C 1.52, D 2.1, F 3.11, G 1.96, H 1.5, K 1.48, M 2.6, N 2.19, P 1.72, Q 2.57, R 3.35, S 2.56, T 3.06, W 3.09, Y 2.82
S23: C 1.4, D 1.93, E 2.14, F 1.69, G 2.33, I 1.89, K 2.79, L 2.66, M 1.33, N 2.48
